Assay results as given in the DeepSol protein solubility set.

test: soluble on expression in E. coli; label from the status in PepcDB or PDB records

Soluble on expression in E. coli, not soluble:
MGSDKIHHHHHHMINIFKPRTLTFYLVKSMDVLELLSELVSFNTVNDPNKGIKPSKECPRFIKDQLDSWDIESEIIERSGYYAVYGEIGDGTPRLLFMAHFDVVPVNLEEWETDPFELTIKENKAYGRGSADDKGNVAAVMLALKELSKEEKLNGRVIFAFTGDEEIGGAMAMHIAEKLSKEGKVPKYMINADGIGMKPIIRRRKGFGVEIKVYPRKVKVKGRVREIEFEPKTPVVETRHAAYFLPGVDTHPMVALSHFLRNSNAVAISLDGAFIKGNVIPGKVKLKYVEPGEGEEVEGDLSLTALLKAIVPIVRAPIKAEKYSDYGVSITPNVYSFDGSHVLKVDVRAMSYSKDDIEKTLREVLNFNLPEAELIIKENEKAGYLFTSPDDELVRVTLRILKELGEDVEPIEGPGASDSRYFTPLGVKAIDIGPRGGNIHGPNEYVEVDSLRKMPEIYRRIALSLLL, MGSDKIHHHHHHMINPAHFDLQSLRIFLQVAQSGSLTKAAEKFHITLSALSKRIAELERTVDCALFIRMPRGLTLTPAGKELVNLAGNVLSNVERMASEMNDYAVGVRGHVHMWANTSAIIQFLPQDLASFLPTRPLIRINLEEKLSKTVVTALAMGEADIGIFVDNVGSQGVEKIPYRKDKLVVLVPPQHPLSALSDVSFNDTLGYDYVGLNSGSSLLKQLKDASDELGRVLRLRVQVSSFDGICRMIEAGLGISVLPEGAIRPEVLGTGLRAINLTDEWASRQLWLGVKSGAILQPEVTNLLTHLRQCGA, MGSDKIHHHHHHMINSYISQQIERNFPYKPTDDQFLALHTLTEFLLSEEPDSLLLMKGYAGTGKTSLVGALVKTLNELKQKTFLLAPTGRAAKVFSGYAGQKAYTIHKKIYRQRAFSNEPTGFMPADNLHKDTLFIVDEASMIANEGLDSFVFGSGRLLDDLIQYVYSGENCRLILMGDVAQLPPVMQTESPALNPEILRGYNLQVWEIALTQVVRQSEDSGILFNATRLRDALRNHTVEIFPKLQLKGFSDFTKVNGDELIEEISSAYSRDGMEETMIISRSNKRATIYNNGIRNRILYREEELSSGDRLMVAKNNYYWTANCKEMDFIANGEIIQVMRVRRVTEMYGFRFADITARFQDYDLEIDLKILLDTLQTDSPALPKELNDKLFYTILEDYEDIPTKAGKMKKMKVDPHYNVVQVKYAYAVTCHKAQGGQWMNVFLDIGYITEEMLGEDFYRWLYTAFTRATHHLYLVNLPDEFVE, MGSDKIHHHHHHMINYTELEENIKKNNIENVYIMCGFNEKLMKESINKILKKSISQDFESLNYSVFDGNEVEFEDILNACETVPFMSEKRMVVVYRAGFLNDNSSGSNKNSDKLIKDIEKYVPNVPKHCILVMYYVFDNTREKPSYRVKKFDKKVCVVEFSKLRGMQFQKKVKDVFAEKGKQIGKTELNYFCSRVENNMDIVYNEIEKLCCYTLEKEITKESIDNLLQPNETDDIFNLVDYISQSKPEMAITVLNEIMYKGVKANSILYMVERQFKLMLSIKIGIENKQSKEALVKELKLNPYVCDKMINECKRFTMKKILKSLDICLRTEKELKSVSGDPKFKMEVLIINLAII, MGSDKIHHHHHHMIPFNKPHLTGKEVHYIYEAVHSGKISGNGIFTKKCHDFFTSTYGFTKTLMTSSCTDALEMSSLLMDIQPGDEIILPTFTFVSTANAFVLRGAKLVFVDSLATEPNMNVELIEGLITSKTKAIVVVHYAGVACDMDVVMNIAKKYQLFVVEDAAQAISSYYKDKPLGGIGDFGAFSFHETKNIISGEGGLLAINNSDYCNRSEIIWEKGTNRSAFFRGETDKYGWVDVGSSFLPSEIISAFLYAQLENVAEIQAKRLEIWNTYYNTLSPLAEHKKLRLPYIPAYATNNAHMFYVICNSLEERTALIDYLKAHNILAVFHYLSLHKSPYFSDKHDGRSMDYADQYAETLVRLPLFYDLSTEDQEFICTKILSFYSEKI, MGSDKIHHHHHHMIQGKKVVSTLDVSDLEPGKKHLLYFQGVEMPTGQHWHVSVTVAKGAKPGKRGVLVSGVHGDEMSSVHTIQTVMSQLDPAQMSGTVMAVTDVSRPAMEGMQRRWPNFGRGTDLIDMNREWPGNENGVTAASRQAGLLFNRLLRPNADFAIDFHTGTTGFDVAAFNIGGMDVPEIKAMLELYPVGQIFDNHVYPSVLHNAFIAAGIPSFCPEIGAARVLDLEMISLFVEGTMNVLKHHGIVAGPMGRTGKDVHVFVGNSAFPILATAGGLVEHLVKLNDKVEAGQKLAIQRDSFGEVVAEYASGVAGEISGLRSDAMSEPGNPLVFVLFNKPGPEDVGGYPE, MGSDKIHHHHHHMITRLHEPYLALLQQAMLAATPSGSRVALDLGCGDGSKTRWLRACSASDALIVGVDRDGSVLRAADDMMFIAGDASHLPLRDACIDLVWCIAALNLFPHRHLALREMWRVLRHGGTLVVASAGEYWVRLRNHPAPLIAALPDTPLPLPPADGLDEEWLLLMAAAGFQPRQTQAYLLDGGRLAQVALINSEALTSYLSLPPCASPVADPEPRHLLIVTSARKG, MGSDKIHHHHHHMITTDSGEQVEALAPIIISASRSTDIPAFYAKWFFNRLAKGYCVWYNPFNRRKMYVSFERCKAIVFWTKNPKLILPYLHELDRRGIHYYFQFTLNDYVSEGFEPNVPSVTQRVETFRELSEMIGKERVIWRFDPLIMTPSITPRVLLSRIWKIGNLLKGYTDKLVFSFVDVKAYRKVQNNLIKETNCFTKEDVETAEMNATQRQETVEGLVKLREIWASTGWNVTLATCAEDIDLTVYGIEHNRCIDGDLMERVFEEDYELVYYLRTGQLPEPDLFGTFPALPDKRKDLKDKGQRKACGCMISKDIGRYNTCRHFCVYCYANTSRECVQKNAVHYSDDSESLIRS, MGSDKIHHHHHHMITYFELKNFRSFSNITLDLRKAYGKPKKVVFIYGENGSGKSNLMSSFLFLLQTLNTFKNQVELKDMPEYKSNLFESIKDDKIRHQLLQQILHMQFITLSNLIDEYKMLGNEKNMSTKFGFRIEESDGSYFMEFSKDKIIKEELRYQINEREGTVFSISKNQITLSPTVFLDLDYKKELQDNIEKYWGKHTFMAILCNEIETKNSNYIKAKINKNLLNVIWEMRGLSVWCKECHGETARISIPLKFMRQLDEGSVKDQNNKELKLCETALNTFFTQLYSDIKAVHYVFTPNENDYSYELCFKKLIDGKLIDIPISLESTGTRKLLEIFPMLFGSVAGTPVFVDEIDSGIHDVLMKNLLERLLESIEGQLIATTHNTLLMESLPTENTYIIRVNATGNKSIDCVANYRQRTQKTNSMRNKYLRGDYDGIPYTGYFDFQELVEDVLDNIPSSDNEDGDEA, MGSDKIHHHHHHMIYCDHCVMPNTRPGINFTKDKEGKNICSACINHKNKENIDYKARFKELEVLCDKYRRMNGKFEYDCAIAVSGGKDSHFQVHIMKEKLGMNPILFSVEDNFTMTEAGKKNLKNLSETFGCHIISLKPDIKTQKKVMLKTFEKYGKPTWFIDRLIYSYPFAMALKFNTPLLVYGENVSYEYGGSDTEETPSAKEIFLNGVASDLNINEFIDDEIKEENLQLFFNPNKDKLDKLNPIYLSYFVKWNSYSNYIFAKSRGFTDLEGEWDRTMCAENFDQVDSIGYILHAWMKYPKFGHACASDYAARFVRYGLLSRKEAIELVQKRDHKLDNKCVEDFCNFIGISKTTFWKIVEKHYNMDLFYKNDFGEFKLKNKLQ, MGSDKIHHHHHHMIYKADNNVRQKLVEMFDDFDSTIVLSYLQGHMGSAWVDNLENPTVAQITVGIFVFYAGNPNAEEAEELLYNLPDFTLAIVDSDEWKKRIETVHKGSIEKFQRFRFNKNPGDLDKEYIRDILSTLPQNYEMKKIDKDIAKASSFHALSEDFTSQFDSIDDFIDRGVGYAILNKGQVVSAATSFSIFDDGIEIEIASHPEHRRKGLAKIVASALILDCLDREKYPSWDGANVESVELAKKLGYTFKEPYDTYFIQIKK, MGSDKIHHHHHHMKAANLAPCLMAMLLCTACEQLPIARKAPPPPPPATTAAKPAEQPRPTPIAAHDISLAGTCRRTEDDGFREDAVMRVVSNDVKSLKWKLWVSKRGTCQFDLADFKQVQKTPHIVLEATDGTQCKLLIWQDPRRVTLAHANCQQRCTPGIYEQAWPVLFNPRNGDCAEIR, MGSDKIHHHHHHMKCLRESAIVAYAETKVMEKSDRDVWELDAEVLEALLERSGFEKGEIDGLVMAGFGLTAAGESFWAQVTADQLGLELDYCDQVHIGGCSATGSVARAAAAIDAGLCTTVLLLFADTGVAENNRGDRSFRREWADPYGVFGPPDAFGLLTRRYEHQYGLDYEMLGKLAVTQRAHAVLNENACEKLRKPITIDDYLNSRMIADPIRLLDCVMRCDAASGLLMTSRRRAREKGIDKFITPIGYGERTNFQGGENFVDVTRSGHEACGKRALAQAGLALKDVASFHPYDDFIIAIMLQLEAFGFCGRGQGVQFIREMNFSFDGDLPLNTGGGQISAGQAACCSHNLIEAIRQLMGEGGARQVRNTANALVSGIGWINYSRNWGTSSALVLAPNA, MGSDKIHHHHHHMKDNFFGREYDIAPAGGETGQAFVATHEDEKFFLKRNSSPFLAALSVENIVPKLVWTRRVENGDVITAQKWVNCHILTREEMVGPRVAKLLAKIHHSENLQHMLAKIENCYFSADQLLSLIKVNTKANNELSKEIIAAIRYLEQNLSAAQTNDYVVCHGDVNHNNWIISEENELFLVDWDGAMLADPANDIGMILYQYIPRKDWVSWLSNYGTTLTEELHRKLKWYTICQTVMQLITEHSNEANERAKQIFQNAIEDDEV, MGSDKIHHHHHHMKEILLKAENVRAYYKLEKVSVKAVDGLSFEILEDEVIGVVGESGCGKTTLSNVIFMNMVKPLTLVDGKIFLRVNGEFVELSSMTRDEVKRKFWGKEITIIPQAAMNALMPTIRMEKYVRHLAESHGIDEEELLDKARRRFEEVGLDPLWIKRYPFELSGGMRQRAVIAIATILNPSLLIADEPTSALDVVNQKVLLKVLMQMKRQGIVKSIIFITHDIATVRQIADRMIIMYAGKIVEFAPVESLLEKPLHPYTQGLFNSVLTPEPEVKKRGITTIPGAPPNLINPPSGCRFHPRCPHAMDVCKEKEPPLTEIEPGRRVACWLYMEERA, MGSDKIHHHHHHMKETWISERRMIQLPGLTIDRHISAPNELEFPGCKYHLLCILLSDHNQQKMTRIGEQESQKSQAKGDFWICPAKMSGIWSWNSTDESLTFVIDPLFLSRMAEEVGELNESKVELLSTVNAHDPQIEAIARLFQAEFDTGGLGGHLYAESLIQVLIVHLLRQYCAFSPKIKPDVGSMPNNRLQPVFDYIHSYLDRPLLLAELAEISGISQYYFCRLFKQSMGVAPYQYVLQQRMEKAKELLHQRKYAIAEIALLVGCADQSRFTRHFKKYVGVTPRMFLSKK, MGSDKIHHHHHHMKFVVSSNALLKQLTAINGVITTNPVVPILENFLFEIGDGMLVVYASDLQTSMITEIAVEAKAKGSIAVPAKILLDTLKNLPEQPVTFTIDPETYSIEISSDNGRYKLSGENATDFPKVPGVKNGYSVDISTEILNRAISSTIFAASNDELKPAMTGVYVSLTESNATFVATDGHRLIRYRRTDIVSEMANTLIIPKKALNLLKASLPSENTNVKIEYNASNAFFSFNNIKMICRLIDERFPDYENAIPVDNPNVLTITRTDMMNSLKRISIYANKTTHQVRLKLAGSELQISAEDLDFSNEANERLACEFEGQDMEIGFNAKFLVEMLSNLDSPQISMHFSAPNRAGIITPADKDEHEDVLMLVMPVMLNSYA, MGSDKIHHHHHHMKFYEDGNIPEIPNMYFIYGDGGTGKTSLLKQLKGHKFVFSFDMSSNVLIGDKDVDVVIFEHNDAPNIQAMVEECIIRAIQNAKYQVIVLDNVTALQNLVLENIDNAAKDNRQNYQKLQLWFRDLGTILKESGKTIYATAHQLDNGSSGISGEGRFQADMNEKTFNAFTSMFDLVGRIYLAAGERMIDLDPEKGNHAKNRLDDRKLIKANELIQSEKGEK
